In patent publication US4534894A, “Process for sulphation and phosphorylation of proteins and peptides” (The Rockefeller University, priority 1982, dated 1985):

What was measured:
[1] = Aggregation tendency by turbidity of the solution (absorbance at 400 nm); assay type: physicochemical; conditions: 0 to 0.1 A non-aggregated, above 0.3 aggregated
Method: The tendency of modified insulin to aggregate was assessed by measuring the turbidity of the solution. This method is based on the work of Leach and Scheraga (S. J. Leach and H. A. Scheraga (1964) J. Amer. Chem. Soc. 82, 4790-4792) who stated that absorbancy observed in insulin solutions between 350 and 600 nm is due to light scattering of aggregated particles. […] After deaeration under vacuo for 60 min. 1 ml of this solution was diluted with 1 ml of PBS, and the turbidity was measured on a Hewlett Packard spectrophotometer type HP 8590, utilizing as a blank a non-aggregated sample diluted by 1 volume of 8M guanidine hydrochloride. Aggregation was measured by the difference in absorbance determined at 400 nm for the two samples. Non-aggregated samples gave absorbance values of 0 to 0.1 Absorbance Unit(A), Values above 0.3 were considered to be aggregated.

[2] = Hypoglycemic potency (United States Pharmacopeia method); assay type: in vivo; conditions: USP Vol. 18 hypoglycemic potency assay; relative to unmodified insulin
Method: Hypoglycemic potency of the modified insulin was measured as described in "The United States Pharmacopeia", Mark Publishing Co., Vol. 18, pp. 883-884 (1964). Bioactivity was 62% as compared to unmodified insulin.

| Substance | Turbidity (difference in absorbance at 400 nm) ([1]; dissolved in PBS, passed 50 times through syringe with 26G needle, blank in guanidine hydrochloride) | Bioactivity (hypoglycemic potency) as compared to unmodified insulin [2] | Turbidity (absorbance at 400 nm) ([1]; dissolved in distilled water, treated by the same procedure) |
| --- | --- | --- | --- |
| Example 1: porcine sodium insulin sulphated with sulfuric acid and N,N' dicyclohexyl carbodiimide in dimethylformamide | 0.08 A | 62% | – |
| unmodified porcine sodium insulin: unmodified porcine sodium insulin, starting material and comparator [reference compound] | – | – | 0.51 A |
| Example 4: porcine sodium insulin phosphorylated with concentrated phosphoric acid and DCC in DMF | – | 85% | – |
